Assay results from the DeepSol protein solubility set.

Assay: soluble on expression in E. coli; label from the status in PepcDB or PDB records

Soluble on expression in E. coli, not soluble:
MAHHHHHHMQKPIMIVGTSAPRRREIAQRHFGATYDLVYLSPDIDEKQIRDSDPFTLTRAIAQAKMDELRVKVARDAALQDRVAKRPGSVAITFDQVVDYHGEIREKPASEQQAAAFIHAYSNDNLGTVMTTVLYDFGTGKQVSMPNTTLTFYGEIPDETVARVVERGACLRTAGGFVVEDVDMKRCEIKIDPGTEEEVCGFCEKSVRALLEGVQRPWVQSDHCSDGKR, MAHHHHHHMQVWGLVGRLTLPPSSSGKARKGSRRIPAADARLSKGSVNNRGRFVHNNRRMDNTLSVVVEKPAGLRRQWIAWPRGKSRDDPYEAIVPLLHISHYLPPVMAEAASCLDVKASFFPSLFTAGDSASLSMPRGGRHAGGADTTFNGIQGQPRNSPDYYYLGNRGGDDGGSPLWAAPPMVRIEVWIDNIRITGSKSDVTLWEAQVLRNADSCHAYLGGTANRALRNTLFWGYDLIKLTVRYP, MAHHHHHHMRAVQLVQGRARMCCVPFLFWVCPPPHLFSLSLPTPSLRSCGARTSCVAERSHASRRGGCGLPSPLPAQPTSPPDTRTGDTCICAFSFTPDEVSQTMTDRCYRTLGLDRGAAEADIKRAYRRKALLFHPDRNPNGAEAFKALQGDYEEALTDARRRGARGGGVPPFSSMASPSWDPAAPAAGAAYRFARAAGTACPPFFPEPSPAPLFTDEELFADSIPGGWRDVCARRGASARGGDKAGGRNNAAGRTEEINGSNSCCSQEAAAADARWRRAHGARVPVSAYTFSGPVPPPPPLPSQPSPHLSSSSFTSFCTHTRARASVAGTGSRLSTQAQRNRFVSRECMWKSSSAEALSLDAKQEAGGAGKVGRSRGCDGYTGQNREPVCGSDTGESAEDRVYREAVLLQRRMPALSGKSRGAAAERTRTHSQSDRAFSTEGVPVGSNATFPATRGVYHQRSDLHTSSTTTTTTTSSSTKGERLEAALSQREALCRQCRDTETTLQHEVDDDHAPAFSDDGDASAHPDKGDGAGSTNAALGPSAAGPLAASGRDTSRAGDPFPVKQSACPESNSDDRLRGDLPHRDRIPDECPLLQSENPRGRYTPNPAEVAEMSDMEVYLLASVAEDINQKTQTVMTARLSKEPYSCSASTPRAHQHVYFTCTHPSACEDCYASGVSKCPLCGASGVDRSSPPPSATTTSSSIEKGGTTGASGACTGTRASLASSSAPSPETMYEPVRVHSVLTCGDADA, MAHHHHHHMRGVSAAEIGKFRELQNHWWNPDGPLRTLHFFNPLRVKYINDTCRNFSKRSSLLASSGITPGMRILDVGCGGGILSESLVRLGGNVLGIDMCEESIAVAQQRREQVLQDVASCTLQNGAASLEYRYASLNTIAVEEKQQFDLVVASEVIEHVDDAPRFLQDLCDATKPGGLLIISTMDKSIRAAISHIAVAEYLTALVRPGTHDWSKFVPPKDLSRCALQHQVRQVDLQYIVACPNILMSLSTRQMQLAFSLSKRFDTGHYFWSGLKVTAPA, MAHHHHHHMRKPGRKIVYVPDDDAQFLGSMSDPLPPRVSDLLRLKSPSMSDNGHAETGSNGTTGSPGYESIGNELLVSYGGYTLADGSGTLHPPTTRRNGAQLYKSLRKCCRFLRASLSDSMAPKLETDSESSWSCPSFCSSDPTSSSEYSDVSPQRGRRRAAKQANEQTGYNAMIVVQLRRLLHKRGLSTCGIKKVLVARLEQSDMQLSKSKEEGEEQKEQEELDGSAGECTKTERSEDVCSASCGNVSGRVTAAGPTSMLSSLLSFGSRLFRASTGSVSEGGHVSGLKRRRSV, MAHHHHHHMRNMNDKNNVHNNYYYLKLENVNNGWRNKELKNDITNENIYQFIGKKKKNYSSSEMSKNSYSTCNTNNNIYINYNNNNNMYNNYNNNIYKNLNNRNINYKGYKFKQNYHTNAYVNISKNRNYYYPSESKKLTNEYNKYDFDNLEKRECKIINDESYKIEETTDMENDMLYIHNDSLPSHQPTINNNTQELYHINNYNNNIYFYEPCEKDNYLDSSIKDIYFDIYSNDTSENIKNETNDIINVDQKGNKYEENNINISNNTHEYKTFVNDDKQLLLDHIKRLEYQNNIFLNNMLNMYYVCIDYIKLQDDKIKEHEQVINSQKEFISNLKKQLSSNDNTNVAYNININHINKYKHVTK, MAHHHHHHMRPLASFRGNTQTMLYTPVQDKYSILMEDDKLRVGASSMQGWRSTMEDAHTIHLSLPGLPSHMASEDGAIAAVFDGHCGSKTSQTSAIRILEWITSMEAFGEGNMEKAIRDGFIAGDLAMQRSSPNEMSGCTGNCVLIVENHLYCGNVGDSRAVLCRDGTAIPLSEDHKPNLPRERERVLRAGGYIHNGRVNGVLSLSRALGDFAFKDSDLPPEAQAVTAIPDVVHLELTPQDEFVIIACDGVWDMVTNEKAVEIVRSEVADHSDLSLACERLMDACLSKVSTGAGTDNMTVIILQFKSFFLKKVESRFGAISCNAAE, MAHHHHHHMRRWLRNVRGGLLHPRAARLMVSCGKTHGLHMVSTVSRNTETEDEEIRDNESFPHQDDDDESVTEISEEMMRSLPKAPPKLRSAGSLLSTEEQEQLTRMIFKAHYAGEGMGENDRAMWYQSALEIHWLEEWAYEEFDGQTQRDVARRAVKKAVLQRVDLHKPLAYIIGHQPFYGCDIRCSPPLLCPRPETEMWTHWLVRTWLSKIPETTQPLRVLDMCCGTGCVGIAIAKHVPSAQVTAVDILDEAIGASEENAKLNGLEASRFCTLKSDMFESFLVSNSGSLTGEDTKLDLKKKEPAAEHAGSFDIIVSNPPYVLPDQYTDLPPGIKLWESKLALVGDEKREQQQYLYFQELSEFGSLLLKPKAMRNPALCAAPNIVIEVGLQAEQVASVMEKSKLWENVEIHLDYAQQMRWITASSSH, MAHHHHHHMSAGSDARIYRCTFIKKEAVKKVIYRKYYRHKKIDTKIRKLRVSNEIKFTKKLASLNIDVPYIYFVDAKEKSLYFEYVKGCTINFILKNLKEYEPKIPICVGMVLAKIHNGNIIHGDYTTSNLILRNSFIQQNNLLDLKNNNSPYNFSDLENVKLCVIDFGLSFLSSSIEDKAVDLFVLLKTIKSFHSEFPSLEEDILEGYKMKSDNVNDIFTKLEIVKQRGRKRPMVG, MAHHHHHHMSDAQTVQTLVLWNGEWPYVKRGVSEVRAVAAGVIASANALVDVPAYLARARKYTAAADDFVTAQSARASSTLESHQWVVPAAGIALASVYVVVRSAPWGGMKMMRNGLVTAGALTAFMYPREIVHQIDRAMPFQAPASISEQKNES, MAHHHHHHMSIFGVSSYFLWTQKGQTVLPLVRGSGFVMSFQQLNTFYSYHVMSAAHVTCPVKHRKLYGDTIGLKAIGERHISTRLLIPDEATHRVQSSFELEFRQQYMPNTDVASLRLCKEEQFKKAMLPPQDSGTGTASPLQVILPDLDRIEEGDELILCGVHTEEERANPNDDGLVLNPMRLIATCKAALLSLDYGTVLLASIDGPAEEARESGSGSAASASRPVTVPPLPLSMCGGPVLRRSSGRCVGVIAARVMANAPPRDPQSTSLYQDPYLDISEHIALHAHWPLDVAFVPIGEFYDPLRRCEM, MAHHHHHHMSSDYSRVCAAEKASESHPPGYSRDALETELREGFRKQQQQVNKNRQVEQMALAKGLGESATTSLKDGFYIPHKVLPPLKPEEKKLFERIDIMKWCGRAGRKLEDSAVAPPPTLGEVPAEHQPMQVQEHQASTEADAEDALSTSVSSTASSLAALKDNSSEDVRHLLHQLRSTSRATSSLRDARAEVDDNIQAVEEALLRQSSPLSFEDLLDTAARLLAAMERGELTEDVVVPRGADVSTEKDEGSPGSPADSAEAPLSASGSTTRVLHGAVEVETYTRKHLLPRAYQVVAIAHTAEWILQYTMAYLRTTVAVNQDEAFTRLTLLARCVRLLGDIENFSSILLSLETKCEEYAGFAALKDTAEKHLGTLLDDVETSLDAILSAPFPSRRSRLLLLEGGIQKKLQRALLFLNEIDYSWTPHVRFHWAWKVQLLSASFHRIHGLISRKHMQCSMGFVDDSLYERVADTRITGRYMGASPVQPKVLRAQQVEYEKITEGLTFQQIGMSIKGVASLLIGEQLCMGARYILCQSTKQFDPVWGFHMDEISTAPTQEELSAMAAKIAVHAKEQLTARPTIARKEHSSSTFLTQM

Soluble on expression in E. coli, soluble:
MAHHHHHHMQTPNSECVGPESPKAGIASSCQGCPNASICASMPKGPDPDIELIRQRLSGVKRTVMVISGKGGVGKSTLTKELAFALGQMGLNVALVDLDICGPSLPRLMGVRGEDAHQSAAGIEPVLVDETVSMISMHYLLGDKNEAVLFRGPRKNGVIKMFLKDVIWGDVDIMLIDTPPGTSDEHITVASILQQCGGVTGAILITTPQLVAEADVKREVKFSHKAKLHLLGIVENMSGFVCPNCKESSVIFPRANSQGAGKRLSDEFGVPFWGEVPLDPVLMKACEEGVSLTDIVDGKSPTIEILQSVAAKLVASLEIE, MAHHHHHHMRHLYGPAPGCVLLSFDFNQMELRVLAHLSGDELLIKHLSSEYDVLSAMTRHITGLSDDEQVPPHLRETVKVVVYGLFYGMGLATMKERVKILMDSAHSVPSSQRKFTADTLLRAFHQRYPAAGKFLTRARIRAFHEARCVTLTGINDLSSEKDGNRRRQHSIARILQGSSSTLFQSAMVKVHERRHDIVPNLPAAPFALVLCIHDELIYSVVEGYVDVVARKIKGIMVEQAQVFSLRVPLRVSVKVGKTFGSLEKLDVP, MAHHHHHHMSARKFAGEYVSRHLDGLTVLASLADRPAAAKPVICTHNGSFHCDEAMACGLLRHVPEYREAVILRTRDPKQIDACDIVVDVGAIYDADTNRYDHHQASFHGTMTTPKKAYKTRLSSAGLVYKHFGRQIICEYVEAVLQPSSPARAAVLSMTSWSESRTGLSEAELDVLEDALYAHFVEQVDGIDNGVECWGLADPAVGTLVPNYTQSTSLSQRIGQLQAYWNEPENGDVVAENANFAVAVEMAVTEFFKALTYLSFSWLPARSIVEAAFQRRHEFDESGKIMVFKGVKACPWKDHLLELEAESNCLGAVLYVVFSDGKGWRVQAVPKTSTSFENRKPLPYRGLRDDALSAACGIEGGVFVHVSGFIGGMKTFDGAMALAKQALVVVN, MAHHHHHHMSCRRFHKVLQANEEENEHAREAFLASWRSEYQQFLQSKLAALVWHVEHHCRSHVTPQTATSMACGEVPRMKVATTAPNSTTTASTNSNSAMMAEDAEQHDACNVLAHKQNRRTTLPSHFFLEQTPTSMPFYPREFIVEKEAQMFRQTNSPFTVGETPHGSQHSRTEINASTATVVPLPSVHKKETADRNSEKDDDRTAILAVSPSPRQISMHSPSQIEDDGSLDASLSPAATVAVTNVLTRTPGPAVQLQKMLPTEEVSKANLRKTIARLYSESVDTRSSWSDTWSQKKQRAASLLPPPSSASHMMHLKTMHVSHGTPCENMEASRNDMLSKKQLICELRRLYGLEDER, MAHHHHHHMSELKIGFLGCGSMGECIMAGLLKAKALGPENTFICNRSASTNERLVSLYQVKSVSAVELAEKSDIIMLGVKPYGIVPVLETIKEKITPSKLVVSMAAGVPIATIENHCPPKTKVVRVMPNIPSYVGEGVTSISGNSAVTPDDEAVVMKLFSAIGKSYLVAESAIHGVVGVAGSSPAYVFMFMEALSDGAVRGGIPRAQSYEMAAQAVLGAAKMLQDSGKTPSALKDMVCSPGGTTIEAVRFLEKGGMRSSIIEAMIQCMEKSKEFERMYSE, MAHHHHHHMSIIHYSLQYNCKSFCIFTYFLIPSYWKCSTYNIPQYRSQNKNNFISFCIQFLVQQCVLIIHKVFNLPNTSLRNYFPQINKQINNQTFLNVVVKRKLNHGKLWGAHV, MAHHHHHHMSSEHWVFFGLPPFFTEQHSSATLDRQCTLWSNLLLDHAIYHAQRTAGGDTNALLRFYTTQSDIFYNPAINKRLSPEGAHTMLQSLVARHPNHVVIVSDGGPRDFSVLVCTTEDGFKGMEETLLRYILDHGEVQTTAMLSKKGTVMTFDELASGAALGYGQTRSAYLARFSSAAVPVADVGRLSEEQAIRMYLHALNRRPVSAMRPFKVTLFNLDGTATQPYQGVKFGGE
